Tests used:
[1] = target: T1, CD33 (Siglec 3) expressed in cells (human, UniProt P20138 18-364); test: reverse immunoprecipitation: S100A9 IP from CD33/S100A9 co-transfected SJCRH30 lysate, blotted for CD33 (FIG. 3E)
T1 construct: whole, on cells; In the co-immunoprecipitations it stood in cell lysates; also called SJCRH30-CD33 cells; CD33 on MDS-MDSC

[2] = target: T2, CD33/Siglec 3 chimeric fusion protein (ectodomain of CD33 fused to the Fc portion of human IgG1, with a … (Homo sapiens; human, UniProt P20138 18-259); test: immunoprecipitation of BM cell lysates from MDS patients with CD33-fusion, then mass spectrometry (FIG. 3A)
T2 construct: extracellular domain; also called CD33-fusion; CD33-IgG; not shown: Fc region of human IgG1 (human Fc gamma) from the expression vector; C-terminal recognition site for E. coli biotin ligase
From the text: Therefore, to identify potential ligand(s) for this receptor, a chimeric fusion protein with the ectodomain of CD33 and the Fe portion of human IgG (here on referred to as CD33-fusion) was produced. BM cell lysates from MDS patients were immunoprecipitated with the CD33-fusion followed by high throughput mass-spectrometric analysis on associated peptides. S100A9, an inflammatory signaling molecule known to activate MDSC, was among the most prominent protein bands identified (FIG. 3A). To confirm the specificity of the binding of this DAMP to CD33 both S100A8 and S100A9 transfectants were prepared in the rhabdomyosarcoma cell line SJCRH30, which lacks detectable expression of endogenous CD33, S100A8 or S100A9. […] To validate clinically the ligand specificity in MDS patients, the pull-down was compared with CD33-fusion from healthy PBMC and BM as well as MDS patients. As expected, the highest amount of S100A9 was precipitated from the BM of MDS patient specimens (FIG. 3F). Next, to understand the kinetics of S100A9 and CD33 interactions, SJCRH30 cells were transfected with either vector or CD33 and incubated with recombinant human (rh) S100A9 tagged with DDK ([…] epitope, same epitope as Flag).

[3] = target: T2, CD33/Siglec 3 chimeric fusion protein …; test: immunofluorescence staining of transfected SJCRH30 cells with CD33-fusion and anti-human IgG1-APC (FIG. 3B)
Method: Immunofluorescence was detected using a Zeiss automated upright fluorescence microscope and images captured by a Nikon camera with the Capture Program AxioVision. Detailed methods for immuno-staining on S100A9 transfected SJCRH30 cells have been published previously (Chen, X., et al. 2008. Blood 113(14):3226-34). Specifically, SJCRH30 cells, which lack detectable expression levels of both CD33 and S100A9, were transfected with either S100A9 or S100A8 (negative control) for 48-72 hours. After incubation with CD33-fusion for 30 min (2 μg/ml), 1×10⁴ cells were cytospinned onto slides and then stained with a secondary anti-human IgG1-APC before analysis by immunofluorescence microscopy. Similarly, SJCRH30 cells, stable-transfected with CD33, were incubated with rhS100A9 tagged with DDK for various time points and stained by the same methodology before analysis.
S100A9 is a native ligand for CD33. […] Therefore, to identify potential ligand(s) for this receptor, a chimeric fusion protein with the ectodomain of CD33 and the Fe portion of human IgG (here on referred to as CD33-fusion) was produced. BM cell lysates from MDS patients were immunoprecipitated with the CD33-fusion followed by high throughput mass-spectrometric analysis on associated peptides. S100A9, an inflammatory signaling molecule known to activate MDSC, was among the most prominent protein bands identified (FIG. 3A). […]

Row | binding result [1] | binding result [2] | Binder | binding result [3]
1 | binds | binds | S100A9 (ligand, human, UniProt P06702 1-114, looked up, One entry covers both the endogenous protein of human specimens and the protein expressed from transfected cDNA; also called MRP-14; calgranulin-B) MTCKMSQLERNIETIINTFHQYSVKLGHPDTLNQGEFKELVRKDLQNFLKKENKNEKVIEHIMEDLDTNADKQLSFEEFIMLMARLTWASHEKMHEGDEGPGHHHKPGLGEGTP | 
2 |  |  | S100A8 (ligand, UniProt P05109 1-93, looked up, also called MRP-8; calgranulin A) MLTELEKALNSIIDVYHKYSLIKGNFHAVYRDDLKKLLETECPQYIRKKGADVWFKELDINTDGAVNFQEFLILVIKMGVAAHKKSHEESHKE | no binding (tested: 2 µg/ml CD33-fusion for 30 min)

From patent US20230348555A1 (H LEE MOFFITT CANCER CENTER AND RESEARCH INSTITUTE, published 2023)
